The source of these data is US20230106247A1 (L AND L BIO CO LTD NINGBO CHINA, published 2023).

Test in all cases: ELISA
For assay [1], the target named is human Sirpα-V2-his (human). As to the method: (§1) Different antigens (recombinant proteins) such as the human Sirpα-V1-hFc, Sirpα-V1-his, Sirpα-V2-his, Sirpβ-his, Sirpγ-his, monkey Sirpα-his (cynoSirpα-his) or NOD-mSirpα-his described in Example 1 were diluted with a PBS buffer at pH7.4 to concentrations of 1 μg/mL, 2 μg/mL or 5 μg/mL, added into a 96-well ELISA plate (Corning, CLS3590-100EA) at a volume of 50 μL/well, and placed in an incubator at 37° C. for 2 hours. After the liquid was discarded, the wells were added with a blocking solution of 5% skimmed milk (skimmed milk powder available from Bright Dairy) diluted with PBS at 230 μL/well, and incubated in an incubator at 37° C. for 3 hours, or placed overnight at 4° C. (for 16-18 hours) for blocking. The blocking solution was discarded, and the plate was washed with a PBST buffer (pH7.4 PBS containing 0.05% Tween-20) for 5 times, then added with 50 μL/well of the supernatant (containing a detection antibody) or 10 μg/mL of the starting 5-fold gradient dilution of the antibody to be tested, and incubated at 37° C. for 1 hour. […] The plated was washed with PBST for 5 times, then added with 50 μL/well of TMB chromogenic substrate (KPL, Cat #: 52-00-03), incubated at room temperature for 10-15 min, added with 50 μL/well of 1 M H₂SO₄ to stop the reaction, and read by a […] Go microplate reader (ThermoFisher, Cat #: 51119200) for the absorbance value at 450 nm, and then a clone with high binding activity was selected or a EC₅₀ value was calculated according to the OD value.
Chain of human Sirpα-V2-his (human) (chain, as listed by the source): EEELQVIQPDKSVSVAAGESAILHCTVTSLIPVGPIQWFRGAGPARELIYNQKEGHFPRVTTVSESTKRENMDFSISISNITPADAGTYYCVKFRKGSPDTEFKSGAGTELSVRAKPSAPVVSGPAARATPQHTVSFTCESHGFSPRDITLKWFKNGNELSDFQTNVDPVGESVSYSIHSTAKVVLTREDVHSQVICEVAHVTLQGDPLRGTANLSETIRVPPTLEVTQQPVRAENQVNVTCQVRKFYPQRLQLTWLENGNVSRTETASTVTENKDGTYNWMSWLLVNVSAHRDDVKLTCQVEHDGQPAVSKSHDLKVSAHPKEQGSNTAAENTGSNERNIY

The target in assay [2] is T1, Cyno Sirpα L932 (cynomolgus).
T1 chain: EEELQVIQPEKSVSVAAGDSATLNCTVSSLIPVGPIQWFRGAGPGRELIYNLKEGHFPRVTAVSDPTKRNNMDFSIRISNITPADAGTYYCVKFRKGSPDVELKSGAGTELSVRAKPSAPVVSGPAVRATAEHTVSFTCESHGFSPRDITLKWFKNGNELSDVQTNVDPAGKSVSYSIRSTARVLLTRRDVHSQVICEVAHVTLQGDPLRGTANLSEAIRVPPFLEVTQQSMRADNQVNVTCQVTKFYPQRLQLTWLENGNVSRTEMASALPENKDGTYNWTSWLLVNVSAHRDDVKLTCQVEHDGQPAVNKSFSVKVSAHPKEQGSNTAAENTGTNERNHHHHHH
Here is the method:
as §1

The target of assay [3] is T2, human Sirpα-V1-his (human, UniProt P78324 31-373).
T2 construct: range 31-373; Bought (Sino Biological 11612-H08H) or expressed in-house; also called hSirpα-V1; hSirpα-V1-his
As to the method:
as §1

The target in assay [4] is T3, Cyno Sirpα L936 (cynomolgus).
T3 construct: also called RB3-3; Cyno Sirpα polymorphism 3 (L936)
T3 chain: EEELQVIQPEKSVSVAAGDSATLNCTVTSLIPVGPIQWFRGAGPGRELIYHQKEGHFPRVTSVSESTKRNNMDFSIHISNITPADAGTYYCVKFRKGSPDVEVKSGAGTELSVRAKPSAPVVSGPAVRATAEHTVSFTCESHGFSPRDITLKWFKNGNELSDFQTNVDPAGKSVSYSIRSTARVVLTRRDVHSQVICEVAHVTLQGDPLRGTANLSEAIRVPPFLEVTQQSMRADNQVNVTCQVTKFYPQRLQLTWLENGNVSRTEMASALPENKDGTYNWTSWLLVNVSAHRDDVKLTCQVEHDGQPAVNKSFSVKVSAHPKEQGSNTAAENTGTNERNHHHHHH
Here is the method:
as §1

In assay [5] the target is T4, Cyno Sirpα L937 (cynomolgus).
T4 construct: also called RB3-5; Cyno Sirpα polymorphism 4 (L937)
T4 chain: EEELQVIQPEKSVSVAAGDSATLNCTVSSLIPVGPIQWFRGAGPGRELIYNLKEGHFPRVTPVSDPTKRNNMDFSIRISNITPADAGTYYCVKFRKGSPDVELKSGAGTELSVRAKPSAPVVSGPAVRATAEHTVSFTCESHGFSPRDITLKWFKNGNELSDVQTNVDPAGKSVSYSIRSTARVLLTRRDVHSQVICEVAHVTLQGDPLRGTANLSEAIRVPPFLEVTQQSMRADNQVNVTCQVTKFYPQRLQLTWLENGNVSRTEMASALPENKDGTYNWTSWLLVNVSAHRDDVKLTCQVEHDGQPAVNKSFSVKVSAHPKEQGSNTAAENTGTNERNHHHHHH
Here is the method: as §1

Assay [6] has as its target T5, Cyno Sirpα L938 (cynomolgus, limits assumed).
T5 construct: also called RB6-1; Cyno Sirpα polymorphism 5 (L938)
T5 chain: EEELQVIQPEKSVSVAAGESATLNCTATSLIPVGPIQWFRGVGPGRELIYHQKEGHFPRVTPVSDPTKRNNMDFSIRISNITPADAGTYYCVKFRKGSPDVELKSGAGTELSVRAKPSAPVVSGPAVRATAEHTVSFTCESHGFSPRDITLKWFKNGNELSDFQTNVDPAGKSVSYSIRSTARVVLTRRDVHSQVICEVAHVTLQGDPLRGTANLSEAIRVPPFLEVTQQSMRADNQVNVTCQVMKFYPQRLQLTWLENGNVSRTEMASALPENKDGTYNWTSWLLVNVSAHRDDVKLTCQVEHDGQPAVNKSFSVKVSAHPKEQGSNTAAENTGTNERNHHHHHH
As to the method: as §1

For assay [7], the target named is T6, Cyno Sirpα L939 (cynomolgus, limits assumed).
T6 construct: also called RB6-2; Cyno Sirpα polymorphism 6 (L939)
T6 chain: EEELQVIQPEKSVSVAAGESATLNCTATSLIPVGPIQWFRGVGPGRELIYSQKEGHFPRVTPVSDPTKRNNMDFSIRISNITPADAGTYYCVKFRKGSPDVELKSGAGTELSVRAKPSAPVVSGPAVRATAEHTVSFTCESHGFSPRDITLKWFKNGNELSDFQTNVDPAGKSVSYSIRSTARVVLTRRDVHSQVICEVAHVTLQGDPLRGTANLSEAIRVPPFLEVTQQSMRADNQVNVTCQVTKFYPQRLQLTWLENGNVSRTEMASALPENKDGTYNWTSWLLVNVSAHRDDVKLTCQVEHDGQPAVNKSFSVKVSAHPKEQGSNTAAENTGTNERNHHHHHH
Here is the method: as §1

Assay [8] concerns the target T7, Cyno Sirpα L933 (cynomolgus).
T7 construct: extracellular domain; also called Cyno Sirpα polymorphism 2 (L933)
As to the method:
as §1

B1: humanized antibody mab14-h16 (antibody, human IgG4 S228P, kappa, V domains shown)
VH: QVQLVQSGAEVKKPGASVKVSCKASGYNFNIYWINWVRQAPGQGLEWIGNIYPSSISTNYNEKFKTRATLTVDKSTSTVYMELSSLRSEDTAVYYCARSEGTYYGGRYEGDWFGYWGQGTLVTVSS
VL: DIQMTQSPSSLSASVGDRVTITCRASQDIRNYLNWYQQKPGKAPKLLIYFTSTLHSGVPSRFSGSGSGTDFTLTISSLQPEDFATYYCQQGNTLPWTFGGGTKVEIKR
notes: hIgG4, κ
B1: the EC50 in assay [1] was 0.094 nM; in assay [2], 0.181 nM; in assay [3] it was 0.065 nM; in assay [4], 0.143 nM; in assay [5], 0.121 nM; in assay [8] it was 0.159 nM. In addition, the binding result in assay [6] and in assay [7] was “no binding (tested: the binding signal was not detected)” each time.
